Test [1] has as its target T1, cynomolgus CD3 epsilon, cell surface expressed (cynomolgus monkey PBMCs) (cynomolgus monkey, UniProt Q95LI5 22-198).
T1 construct: On the cells CD3 epsilon is part of the native CD3/TCR complex; also called cyno CD3
Put plainly: flow cytometry on cynomolgus monkey PBMCs, IgG titration. A general note: Flow cytometry measures light scatter and fluorescence of single cells or particles in a stream.

The target of test [2] is T2, human CD3 epsilon, cell surface expressed (human PBMCs / human T cells) (human, UniProt P07766 23-207).
T2 construct: On the cells CD3 epsilon is part of the native CD3/TCR complex; also called CD3 on human PBMCs
T2 sequence (P07766 23-207 limits assumed): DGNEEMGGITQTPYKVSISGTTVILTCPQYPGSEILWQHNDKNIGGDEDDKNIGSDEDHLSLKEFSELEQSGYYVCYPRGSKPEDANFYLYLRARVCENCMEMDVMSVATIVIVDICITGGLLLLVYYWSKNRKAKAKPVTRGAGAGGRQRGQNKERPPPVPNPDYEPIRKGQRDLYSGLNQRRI
The experiment in a line: flow cytometry (FACS) on human PBMCs. Here is the method:
(§1) Antibody staining was measured using a multiformat Flow Cytometer (NovoCyte, Agilent Technologies) and analyzed using NovoExpress software (Version 1.5.0). Lymphocytes were identified by morphological gating of forward and side scatters. EC₅₀ values were calculated using 4-parameter non-linear regression analysis in Prism software (GraphPad Software Inc., version 8.4.3).

Test [3] deals with T3, cyCD3e(1-109)_F-chLys_avi (cynomolgus monkey).
T3 construct: also called cynomolgus monkey CD3 epsilon antigen
T3 sequence (chain, as listed by the source limits assumed): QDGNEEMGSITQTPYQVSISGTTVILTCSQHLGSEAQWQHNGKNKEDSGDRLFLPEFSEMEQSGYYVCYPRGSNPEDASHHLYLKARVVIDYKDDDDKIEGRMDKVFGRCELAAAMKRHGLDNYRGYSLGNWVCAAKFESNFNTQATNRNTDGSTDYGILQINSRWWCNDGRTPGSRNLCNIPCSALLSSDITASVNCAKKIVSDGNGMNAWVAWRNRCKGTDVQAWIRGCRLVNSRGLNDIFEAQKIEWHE
The experiment in a line: BLI (Octet HTX); FabCys captured on Fab-specific sensor, CD3e antigen as analyte; 1:1 model; less precise, dissociation at assay limit. On the procedure: (§2) Affinity determination by determining kinetic rate constants was performed on an Octet HTX (FortéBIO, Sartorius AG) instrument as described below.
(§3) The different Fab-Cys samples diluted in assay buffer (D-PBS, 0.05% (v/v) PS 20, 0.1% (w/v) BSA) were captured onto Fab-specific BLI sensors with a loading level of approx. 0.5 nm. […] A blank sample with assay buffer was included for referencing, i.e. correcting for dissociation of captured antibody. The association phase was recorded for 300 s, followed by a dissociation phase of 900 s. After each cycle, the biosensors were regenerated two times with 10 mM Glycine HCl pH 1.7 to remove bound ligand/antibody complex, while maintaining the integrity of the capture surface. Between regeneration steps, biosensors were washed with assay buffer for 20 s.
(§4) The sensorgrams were fitted using Octet Data Analysis Software 10.0 (FortéBio, Sartorius AG) to determine kₒₙ and koff rate constants (using a 1:1 binding model), which were used to calculate KD.
Background: BLI is a label-free optical method that tracks binding on a fibre tip over time.

Test [4] concerns the target T3, cyCD3e(1-109)_F-chLys_avi. Put plainly: BLI (Octet HTX); FabCys captured on Fab-specific sensor, CD3e antigen as analyte; 1:1 model. Here is the method: as §2, §3, §4
The target of test [5] is T4, Mature human CD3e(1-118)_FLAG-chLys_Avi (human).
T4 construct: also called human CD3 epsilon antigen
T4 sequence (chain, as listed by the source limits assumed): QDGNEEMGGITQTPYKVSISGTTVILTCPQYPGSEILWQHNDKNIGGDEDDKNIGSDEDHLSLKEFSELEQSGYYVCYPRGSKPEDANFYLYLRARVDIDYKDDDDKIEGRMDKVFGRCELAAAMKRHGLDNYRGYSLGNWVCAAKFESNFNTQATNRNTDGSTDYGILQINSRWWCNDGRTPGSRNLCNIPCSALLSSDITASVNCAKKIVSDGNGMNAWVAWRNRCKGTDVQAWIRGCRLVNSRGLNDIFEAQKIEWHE
The test is described as above. Here is the method: as §2, §3, §4

Test [6] addresses T3, cyCD3e(1-109)_F-chLys_avi. The experiment in a line: BLI (Octet HTX); FabCys captured on Fab-specific sensor, CD3e antigen as analyte; 1:1 model; dissociation approaching assay limit. On the procedure: as §2, §3, §4
Test [7] has as its target T1, cynomolgus CD3 epsilon, cell surface …. The experiment in a line: flow cytometry (FACS) on cynomolgus PBMCs. On the procedure: as §1
Test [8] addresses T3, cyCD3e(1-109)_F-chLys_avi. Put plainly: BLI (Octet HTX); FabCys captured on Fab-specific sensor, CD3e antigen as analyte; 1:1 model; rate set to assay limit. On the procedure:
as §2, §3, §4

T1 sequence (Q95LI5 22-198 limits assumed): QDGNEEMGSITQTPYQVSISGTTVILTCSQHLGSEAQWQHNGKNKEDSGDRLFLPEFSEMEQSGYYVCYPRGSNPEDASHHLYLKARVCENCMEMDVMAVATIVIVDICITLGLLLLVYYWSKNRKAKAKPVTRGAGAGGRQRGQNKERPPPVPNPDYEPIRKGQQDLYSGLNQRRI

B1: MAB-1 (parental) (antibody, V domains shown)
VH: EVQLVESGGGLVQPGGSLRLSCAASGFTFSSYWMSWVRQAPGKGLEWVANIKQDGSEKYYVDSVKGRFTISRDNAKNSLYLQMNSLRAEDTAVYYCARGYSAEFAHRSGLDVWGQGTLVTVSS
VL: QSVLTQPPSASGTPGQRVTISCSGSSSNIGSNYVYWYQQLPGTAPKLLIYRNNQRPSGVPDRFSGSKSGTSASLAISGLRSEDEADYYCAAWDHHRSGAVFGGGTKLTVLG
notes: also called MAB-1 IgG; parental antibody MAB-1
Turning to B1, the binding result in test [1] is recorded as “binds”.

B2: MAB-8_h_FabCys (Fab, V domains shown)
VH: EVQLVESGGGLVQPGGSLRLSCAASGFTFRSHYMTWVRQAPGKGLEWVANIDYEGTRTYYAESVKGRFTISRDNAKNSLYLQMNSLRAEDTAVYYCARGYSAEFAHRSGLDVWGQGTLVTVSS
VL: QSVLTQPPSASGTPGQRVTISCSGSSSNIGSNYVYWYQQLPGTAPKLLIYRNNQRPSGVPDRFSGSKSGTSASLAISGLRSEDEADYYCAAWDRHSHGAVFGGGTKLTVLG
notes: Tagless disulfide-bridged human FabCys produced in HEK293 cells; also called MAB-8 Fab-Cys
A word on the EC50: it is the concentration at which the effect is half-maximal. The Kd is the equilibrium constant for the complex coming apart. One may read the kon as the second-order rate constant of association. In general, koff refers to the rate constant with which the complex falls apart. Turning to B2, the figures for the concentration for a half-maximal effect (EC50) in test [2] and in test [7] were 5.5 nM and 3.2 nM, respectively. Moreover, the values for the Kd in test [3] and in test [5] were roughly 0.1 nM and 0.3 nM, respectively. The values for the kon in test [4] and in test [5] were 464000 M⁻¹ s⁻¹ and 802000 M⁻¹ s⁻¹, respectively. Moreover, the koff in test [5] was 0.000258 s⁻¹; in test [6] it was roughly 5.07e-05 s⁻¹.

B3: MAB-7_h_FabCys (Fab, V domains shown)
VH: EVQLVESGGGLVQPGGSLRLSCAASGFTFKSYYMSWVRQAPGKGLEWVANIDYQSQHAYYAESVKGRFTISRDNAKNSLYLQMNSLRAEDTAVYYCARGYSAEFAHRSGLDVWGQGTLVTVSS
VL: QSVLTQPPSASGTPGQRVTISCSGSSSNIGSNYVYWYQQLPGTAPKLLIYRNNQRPSGVPDRFSGSKSGTSASLAISGLRSEDEADYYCAAWDRHSHGAVFGGGTKLTVLG
notes: Tagless disulfide-bridged human FabCys produced in HEK293 cells; also called MAB-7 Fab-Cys
Consider B3, for which the EC50 in test [2] worked out at 6.1 nM. Further, in test [4], the Kd was found to be 0.4 nM, the off-rate constant (koff) came out at 0.000158 s⁻¹ and the kon was found to be 370000 M⁻¹ s⁻¹. In test [5], this molecule had a dissociation constant (Kd) of 1.3 nM, a koff of 0.000627 s⁻¹ and a kon of 499000 M⁻¹ s⁻¹. Further, the EC50 in test [7] is 3.7 nM.

B4: MAB-16_h_FabCys (Fab, V domains shown)
VH: EVQLVESGGGLVQPGGSLRLSCAASGFTFRSHYMTWVRQAPGKGLEWVANIDYEGTRTYYAESVKGRFTISRDNAKNSLYLQMNSLRAEDTAVYYCARGYSAEFAHRSGLDVWGQGTLVTVSS
VL: QSVLTQPPSASGTPGQRVTISCSGSSSNIGSNYVYWYQQLPGTAPKLLIYRNNQRPSGVPDRFSGSKSGTSASLAISGLRSEDEADYYCAGWDRRLHGAVFGGGTKLTVLG
notes: Tagless disulfide-bridged human FabCys produced in HEK293 cells; also called MAB-16 Fab-Cys
For the molecule B4, the EC50 in test [2] turned out to be 3.3 nM. Further, in test [4], the dissociation constant Kd came out at 0.2 nM, the koff is 7.92e-05 s⁻¹ and the kon was 478000 M⁻¹ s⁻¹. In test [5], this molecule returned a Kd of 0.3 nM, a koff of 0.000272 s⁻¹ and a kon of 852000 M⁻¹ s⁻¹. This molecule showed an EC50 in test [7] of 2 nM.

B5: MAB-9_h_FabCys (Fab, V domains shown)
VH: EVQLVESGGGLVQPGGSLRLSCAASGFTFRSHYMTWVRQAPGKGLEWVANIDYEGTRTYYAESVKGRFTISRDNAKNSLYLQMNSLRAEDTAVYYCARGYSAEFAHRSGLDVWGQGTLVTVSS
VL: QSVLTQPPSASGTPGQRVTISCSGSSSNIGINYVYWYQQLPGTAPKLLIYRNNIRPSGVPDRFSGSKSGTSASLAISGLRSEDEADYYCAAWDRHSHGAVFGGGTKLTVLG
notes: Tagless disulfide-bridged human FabCys produced in HEK293 cells; also called MAB-9 Fab-Cys
In the case of B5, the EC50 turned out to be 7.7 nM in test [2] and 4.7 nM in test [7]. Moreover, the equilibrium dissociation constant (Kd) in test [3] was no more than 0.1 nM; in test [5], 0.2 nM. Further, the kon was 446000 M⁻¹ s⁻¹ in test [4] and 724000 M⁻¹ s⁻¹ in test [5]. Also, the figures for the koff in test [5] and in test [8] were 0.000122 s⁻¹ and no more than 5e-05 s⁻¹, respectively.

B6: MAB-12_h_FabCys (Fab, V domains shown)
VH: EVQLVESGGGLVQPGGSLRLSCAASGFTFRSHYMTWVRQAPGKGLEWVANIDYEGTRTYYAESVKGRFTISRDNAKNSLYLQMNSLRAEDTAVYYCARGYSAEFAHRSGLDVWGQGTLVTVSS
VL: QSVLTQPPSASGTPGQRVTISCSGSSSNIGANYVYWYQQLPGTAPKLLIYRNNQRPSGVPDRFSGSKSGTSASLAISGLRSEDEADYYCAAWDRHSHGAVFGGGTKLTVLG
notes: Tagless disulfide-bridged human FabCys produced in HEK293 cells; also called MAB-12 Fab-Cys
B6: the EC50 was 5.7 nM in test [2] and 4.1 nM in test [7]. For the same molecule, the results for the Kd in test [3] and in test [5] were no more than 0.1 nM and 0.3 nM, respectively. The kon turned out to be 445000 M⁻¹ s⁻¹ in test [4] and 650000 M⁻¹ s⁻¹ in test [5]. Further, the off-rate (koff) in test [5] is 0.000188 s⁻¹; in test [8], no more than 5e-05 s⁻¹.

B7: MAB-13_h_FabCys (Fab, V domains shown)
VH: EVQLVESGGGLVQPGGSLRLSCAASGFTFRSHYMTWVRQAPGKGLEWVANIDYEGTRTYYAESVKGRFTISRDNAKNSLYLQMNSLRAEDTAVYYCARGYSAEFAHRSGLDVWGQGTLVTVSS
VL: QSVLTQPPSASGTPGQRVTISCSGSSSNIGINYVYWYQQLPGTAPKLLIYRNNQRPSGVPDRFSGSKSGTSASLAISGLRSEDEADYYCAAWDRHSHGAVFGGGTKLTVLG
notes: Tagless disulfide-bridged human FabCys produced in HEK293 cells; also called MAB-13 Fab-Cys
B7: the values for the EC50 in test [2] and in test [7] were 8.3 nM and 5.2 nM, respectively. For the same molecule, the Kd in test [3] was no more than 0.1 nM; in test [5], 0.2 nM. Besides, the values for the kon in test [4] and in test [5] were 413000 M⁻¹ s⁻¹ and 705000 M⁻¹ s⁻¹, respectively. The dissociation rate constant (koff) in test [5] is 0.000134 s⁻¹; in test [8] it was no more than 5e-05 s⁻¹.

The values above are taken from patent publication US20230357398A1 (MorphoSys, published 2023).
